Consider three molecules from patent US20170247475A1 (Boehringer Ingelheim, published 2017).

In assay [1] the target is T1, recombinant human VEGF165 (human, UniProt P15692-4 27-191).
T1 construct: also called hVEGF165; rhVEGF165
As to the kind of experiment: VEGF165/hVEGFR1-Fc competition ELISA. In general terms: An ELISA detects its analyte on a solid surface through an enzyme-linked reagent.
Target sequence in this assay (P15692 other isoform, or with tags, fused parts or gaps limits assumed): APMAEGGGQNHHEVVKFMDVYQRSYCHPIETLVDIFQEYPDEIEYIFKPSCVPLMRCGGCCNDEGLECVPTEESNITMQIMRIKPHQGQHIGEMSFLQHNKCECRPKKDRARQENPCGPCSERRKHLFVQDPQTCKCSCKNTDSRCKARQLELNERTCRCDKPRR

In assay [2] the target is T2, human VEGF-D (human, UniProt O43915 93-201).
T2 construct: also called hVEGF-D
T2 sequence (looked up): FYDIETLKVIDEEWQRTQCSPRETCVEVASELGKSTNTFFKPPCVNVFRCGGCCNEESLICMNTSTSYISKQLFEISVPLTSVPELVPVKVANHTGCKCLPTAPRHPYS
As to the kind of experiment: binding ELISA on coated VEGF-D. On the procedure: (§1) Binding to VEGFB, VEGFC, VEGFD and PIGF is assessed via a solid phase binding ELISA. In brief, VEGFB, VEGFC, VEGFD and PIGF (R&D Systems, Minneapolis, Minn., USA) are coated overnight at 4° C. at 1 μg/mL in a 96-well MaxiSorp plate (Nunc, Wiesbaden, Germany). Wells are blocked with a casein solution (1% in PBS). […] As positive controls serial dilutions of the appropriate receptors are taken along and detected with horseradish peroxidase (HRP)-conjugated goat anti-human IgG, Fc specific antibody (Jackson Immuno Research Laboratories Inc., West Grove, Pa., USA) and a subsequent enzymatic reaction in the presence of the substrate TMB (3,3′,5,5′-tetramentylbenzidine) (Pierce, Rockford, Ill., USA).

The target in assay [3] is T1, recombinant human VEGF165. Briefly: hVEGF165/hVEGFR2-Fc competition ELISA.
Assay [4] concerns the target T1, recombinant human VEGF165. As to the kind of experiment: SPR Biacore T100, hVEGF165 on chip, Two State Reaction model. On the procedure: (§2) Samples are injected for 2 min and allowed to dissociate up to 20 min at a flow rate of 45 μI/min. In between sample injections, the chip surface is regenerated with 100 mM HCl. HBS-EP+(Hepes buffer pH7.4+EDTA) is used as running buffer. Binding curves are fitted using a Two State Reaction model by Biacore T100 Evaluation Software v2.0.1.
(§3) ^{(a)}KD = kd1/kₐ₁ * (kd2/(kd2 + kₐ₂)) ^{(b)}Curves are fitted using a Two State Reaction model by Biacore T100 Evaluation Software v2.0.1
In general terms: In SPR one partner is held on a chip, and binding of the other changes the refractive index at the surface.
Target sequence in this assay (P15692 other isoform, or with tags, fused parts or gaps limits assumed): as the sequence (P15692 other isoform, or with tags, fused parts or gaps limits assumed) above

The target in assay [5] is T1, recombinant human VEGF165. As to the kind of experiment: SPR Biacore T100, Two State Reaction model; KD = kd1/ka1 * (kd2/(kd2 + ka2)). On the procedure: as §2, §3
Target sequence in this assay (P15692 other isoform, or with tags, fused parts or gaps limits assumed): as the sequence (P15692 other isoform, or with tags, fused parts or gaps limits assumed) above
Assay [6] deals with T3, human VEGF-C (human, UniProt P49767 103-227).
T3 construct: also called hVEGF-C
T3 sequence (looked up): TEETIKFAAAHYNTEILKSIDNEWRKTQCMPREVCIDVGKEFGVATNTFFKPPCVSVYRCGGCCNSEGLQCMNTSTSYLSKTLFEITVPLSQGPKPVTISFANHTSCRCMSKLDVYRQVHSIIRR
Briefly: binding ELISA on coated VEGFC.

Assay [7] concerns the target T1, recombinant human VEGF165. Briefly: kd1; SPR Biacore T100, hVEGF165 on chip, Two State Reaction model. As for the experimental part:
as §2, §3
Target sequence in this assay (P15692 other isoform, or with tags, fused parts or gaps limits assumed): as the sequence (P15692 other isoform, or with tags, fused parts or gaps limits assumed) above

For assay [8], the target named is T4, recombinant mouse VEGF164 (mouse, UniProt Q00731-2 27-190).
T4 construct: biotinylated in the mVEGFR2 AlphaScreen; also called rmVEGF164; mVEGF164
T4 sequence (looked up): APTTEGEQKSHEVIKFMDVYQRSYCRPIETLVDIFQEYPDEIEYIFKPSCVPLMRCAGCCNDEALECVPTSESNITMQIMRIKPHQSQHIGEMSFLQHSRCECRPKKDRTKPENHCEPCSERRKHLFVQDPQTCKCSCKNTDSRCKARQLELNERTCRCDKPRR
Briefly: binding ELISA on coated mouse VEGF164. As for the experimental part:
(§4) Cross-reactivity to mouse VEGF164 is determined using a binding ELISA. […] Wells are blocked with a casein solution (1% in PBS). […] A mouse VEGF164 reactive mAb is included as positive control.

The target in assay [9] is VEGF. As to the kind of experiment: cell-based or functional assay.
The target in assay [10] is T5, human PIGF (human, UniProt P49763-2 21-149, limits assumed).
T5 construct: also called hPIGF; PLGF
T5 sequence (looked up): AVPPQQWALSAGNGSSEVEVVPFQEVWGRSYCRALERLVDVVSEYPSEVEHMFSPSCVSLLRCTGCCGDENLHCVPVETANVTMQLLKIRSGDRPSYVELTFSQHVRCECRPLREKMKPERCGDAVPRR
As to the kind of experiment: binding ELISA on coated PIGF. On the procedure: as §1

For assay [11], the target named is T1, recombinant human VEGF165. As to the kind of experiment: VEGF165/hVEGFR1-Fc competition AlphaScreen. As for the experimental part:
(§5) Finally, streptavidin donor beads (20 μg/ml) are added and after 1 hour of incubation in the dark, fluorescence is measured on the Envision microplate reader.
In general terms: Alpha assays give light when donor and acceptor beads are brought close together.
Target sequence in this assay (P15692 other isoform, or with tags, fused parts or gaps limits assumed): as the sequence (P15692 other isoform, or with tags, fused parts or gaps limits assumed) above

In assay [12] the target is T6, recombinant human VEGF121 (human, UniProt P15692-9 27-147).
T6 construct: also called rhVEGF121; hVEGF121
T6 sequence (looked up): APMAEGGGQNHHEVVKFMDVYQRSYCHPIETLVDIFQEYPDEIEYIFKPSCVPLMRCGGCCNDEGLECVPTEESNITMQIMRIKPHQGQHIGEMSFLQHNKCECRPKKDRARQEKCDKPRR
As to the kind of experiment: binding ELISA, coated rhVEGF121. As for the experimental part:
Binding to recombinant human VEGF121 is assessed via a solid phase binding ELISA. Briefly, recombinant human VEGF121 (R&D Systems, Minneapolis, Minn., USA) is coated overnight at 4° C. at 1 μg/mL in a 96-well MaxiSorp plate (Nunc, Wiesbaden, Germany). Wells are blocked with a casein solution (1% in PBS).

Assay [13] has as its target T7, human VEGF-B (human, UniProt P49765-2 22-188, limits assumed).
T7 construct: also called hVEGF-B
T7 sequence (looked up): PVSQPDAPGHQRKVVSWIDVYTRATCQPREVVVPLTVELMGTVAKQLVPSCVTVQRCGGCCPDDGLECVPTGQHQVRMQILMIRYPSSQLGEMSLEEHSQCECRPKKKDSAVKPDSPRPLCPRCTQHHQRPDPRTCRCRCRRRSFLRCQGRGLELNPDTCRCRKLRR
Briefly: binding ELISA on coated VEGFB. On the procedure:
as §1

Assay [14] deals with T1, recombinant human VEGF165. As to the kind of experiment: ka1; SPR Biacore T100, hVEGF165 on chip, Two State Reaction model. On the procedure:
as §2, §3
Target sequence in this assay (P15692 other isoform, or with tags, fused parts or gaps limits assumed): as the sequence (P15692 other isoform, or with tags, fused parts or gaps limits assumed) above

The target of assay [15] is T1, recombinant human VEGF165. As to the kind of experiment: hVEGF165/hVEGFR2-Fc competition AlphaScreen. On the procedure:
as §5

Assay [16] deals with VEGF. Briefly: cell-based or functional assay. The source holds these as a separate data set.
The target in assay [17] is T1, recombinant human VEGF165. As to the kind of experiment: binding ELISA, coated rhVEGF165.
In assay [18] the target is T2, human VEGF-D. Briefly: binding ELISA on coated VEGF D. As for the experimental part:
as §1

Assay [19] deals with T1, recombinant human VEGF165. As to the kind of experiment: VEGF/VEGFR1 competition AlphaScreen. On the procedure: as §5
Assay [20] concerns the target T1, recombinant human VEGF165. Briefly: VEGF/VEGFR2 competition AlphaScreen. As for the experimental part: as §5
The target of assay [21] is T4, recombinant mouse VEGF164. As to the kind of experiment: binding ELISA, coated rmVEGF164. On the procedure: as §4
In assay [22] the target is T4, recombinant mouse VEGF164. Briefly: mVEGF164/mVEGFR2-hFc competition AlphaScreen. As for the experimental part:
Finally, streptavidin donor beads (20 μg/ml) are added and after 1 hour of incubation fluorescence is measured on the Envision microplate reader.

In assay [23] the target is T8, human VEGFR1-Fc chimera (human, UniProt P17948 27-756).
T8 construct: bought (R&D Systems); also called hVEGFR1-Fc
Briefly: ELISA, coated VEGF109. On the procedure: (§6) Expression is induced by addition of 1 mM IPTG and allowed to continue for 4 hours at 37° C. Cells are harvested by centrifugation and lysed by sonication of the cell pellet. Inclusion bodies are isolated by centrifugation. […] The refolded protein is purified by ion exchange chromatography using a MonoQ5/50GL (Amersham BioSciences) column followed by gel filtration with a Superdex75 10/300 GL column (Amersheim BioSciences). […] To this end, 1 μg/mL of recombinant human VEGF109 is immobilized overnight at 4° C. in a 96-well MaxiSorp plate (Nunc, Wiesbaden, Germany). Wells are blocked with a casein solution (1%).

Assay [24] has as its target T9, human VEGFR2-Fc chimera (human, UniProt P35968 20-764).
T9 construct: bought (R&D Systems); also called hVEGFR2-Fc; VEGFR2-huFc
Briefly: ELISA, coated VEGF109. On the procedure:
as §6

What is called % inhibition is the percentage by which the read-out fell short of the control. For orientation: IC50 means the concentration that gives 50% inhibition. As usually defined, the Kd is the constant that tells how readily two partners part at equilibrium. The term koff denotes the rate constant with which the complex falls apart. In general, EC50 refers to the concentration giving half of the maximal effect. One may read the kon as the rate constant with which the complex forms.

T9 sequence (P35968 20-764, change not shown): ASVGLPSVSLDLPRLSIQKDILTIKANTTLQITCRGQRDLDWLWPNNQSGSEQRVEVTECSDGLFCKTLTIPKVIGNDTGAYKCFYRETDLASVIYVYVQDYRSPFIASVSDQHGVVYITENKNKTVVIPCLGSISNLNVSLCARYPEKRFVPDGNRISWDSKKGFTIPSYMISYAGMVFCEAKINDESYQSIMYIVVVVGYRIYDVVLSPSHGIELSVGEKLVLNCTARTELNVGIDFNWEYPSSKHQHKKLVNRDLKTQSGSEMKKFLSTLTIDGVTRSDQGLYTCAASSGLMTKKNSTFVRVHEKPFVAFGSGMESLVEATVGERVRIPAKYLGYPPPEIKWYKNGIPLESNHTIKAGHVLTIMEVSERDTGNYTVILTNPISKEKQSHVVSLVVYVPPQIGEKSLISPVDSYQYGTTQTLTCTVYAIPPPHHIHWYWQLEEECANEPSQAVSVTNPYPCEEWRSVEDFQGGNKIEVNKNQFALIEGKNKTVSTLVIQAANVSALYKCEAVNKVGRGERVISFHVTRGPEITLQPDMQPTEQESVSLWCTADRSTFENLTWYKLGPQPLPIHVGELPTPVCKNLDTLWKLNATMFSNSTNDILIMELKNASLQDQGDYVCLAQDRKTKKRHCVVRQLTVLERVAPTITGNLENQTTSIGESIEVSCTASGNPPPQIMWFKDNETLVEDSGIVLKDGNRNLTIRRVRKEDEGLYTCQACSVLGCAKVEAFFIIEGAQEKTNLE
T8 sequence (P17948 27-756, change not shown): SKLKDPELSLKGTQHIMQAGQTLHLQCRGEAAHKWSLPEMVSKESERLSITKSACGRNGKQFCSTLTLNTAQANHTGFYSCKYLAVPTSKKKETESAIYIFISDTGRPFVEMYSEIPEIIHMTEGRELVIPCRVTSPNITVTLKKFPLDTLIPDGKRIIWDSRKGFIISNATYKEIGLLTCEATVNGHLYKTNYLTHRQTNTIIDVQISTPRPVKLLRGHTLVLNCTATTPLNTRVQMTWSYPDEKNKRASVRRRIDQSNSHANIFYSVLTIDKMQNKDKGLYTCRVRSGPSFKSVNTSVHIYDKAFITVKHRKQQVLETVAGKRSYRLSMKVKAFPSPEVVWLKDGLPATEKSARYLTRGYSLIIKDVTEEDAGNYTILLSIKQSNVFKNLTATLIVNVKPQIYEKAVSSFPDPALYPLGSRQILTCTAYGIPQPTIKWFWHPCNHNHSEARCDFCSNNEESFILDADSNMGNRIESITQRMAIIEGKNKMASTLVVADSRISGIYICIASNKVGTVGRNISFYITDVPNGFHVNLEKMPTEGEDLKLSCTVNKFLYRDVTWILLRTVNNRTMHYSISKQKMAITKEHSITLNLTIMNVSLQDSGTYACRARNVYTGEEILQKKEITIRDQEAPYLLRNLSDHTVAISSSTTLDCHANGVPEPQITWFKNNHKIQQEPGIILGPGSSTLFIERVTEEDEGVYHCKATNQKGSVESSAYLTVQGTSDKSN

B1: VEGFBII010 (VHH)
chain: EVQLVESGGGLVQTGDSLRLSCEVSGRTFSSYSMGWFRQAQGKEREFVVAISKGGYKYDSVSLEGRFTISKDNAKNTVYLQINSLKPEDTAVYYCASSRAYGSSRLRLADTYEYWGQGTQVTVSSGGGGSGGGGSGGGGSGGGGSGGGGSGGGGSGGGGSEVQLVESGGGLVQTGDSLRLSCEVSGRTFSSYSMGWFRQAQGKEREFVVAISKGGYKYDSVSLEGRFTISKDNAKNTVYLQINSLKPEDTAVYYCASSRAYGSSRLRLADTYEYWGQGTQVTVSS
notes: bivalent VHH in one chain; also called VEGFBII23B04-35GS-23B04; homodimeric VEGFBII23B04
As for B1, the “% inhibition” value in assay [1] is 67%; in assay [3], 100%; in assay [11], 70%; in [15] it was 100%. In addition, the IC50 was 0.0735 nM in assay [1], 0.049 nM in assay [3], 0.021 nM in assay [11] and 0.016 nM in assay [15]. For the same molecule, the binding result in assay [2] is “no binding (tested: 5e-7 M)”; in assay [6], “no binding (tested: 5e-7 M)”; in assay [8], “binds”; in [10] it was “no binding (tested: 5e-7 M)”; in [13], “no binding (tested: 5e-7 M)”. Further, the ka2 in assay [4] turned out to be 0.029 s⁻¹. Further, the kd2 in assay [4] was 0.00013 s⁻¹. Moreover, the equilibrium dissociation constant (Kd) in assay [5] stood at 0.16 nM. Further, in assay [7], the off-rate constant (koff) is 0.017 s⁻¹. Besides, the “% inhibition, VEGF HUVEC Erk phosphorylation assay” value in assay [9] was determined as 92%. Also, the “IC50 (nM), VEGF HUVEC Erk phosphorylation assay” value in [9] came out at 0.19 nM. Further, the EC50 was determined as 0.92 nM in assay [12] and 0.428 nM in [17]. Besides, the kon in assay [14] amounted to 450000 M⁻¹ s⁻¹. Also, in [16], the “% inhibition, VEGF HUVEC proliferation assay” value was 95%. For the same molecule, the “IC50 (nM), VEGF HUVEC proliferation assay” value in assay [16] was found to be 0.22 nM.

B2: VEGFBII022 (VHH)
chain: EVQLVESGGGLVQTGDSLRLSCEVSGRTFSSYSMGWFRQAQGKEREFVVAISKGGYKYDSVSLEGRFTISKDNAKNTVYLQINSLKPEDTAVYYCASSRAYGSSRLRLADTYEYWGQGTQVTVSSGGGGSGGGSEVQLVESGGGLVQPGGSLRLSCVASGIRFMSMAWYRQAPGKHRELVARISSGGTTAYVDSVKGRFTISRDNSKNTVYLQMNSLKAEDTAVYYCNTFSSRPNPWGAGTQVTVSS
notes: biparatopic bivalent VHH in one chain; also called VEGFBII23B04-9GS-5B05
With B2, the “% inhibition” value turned out to be 89% in [1]; 100% in [19]; 100% in assay [3]; 98% in assay [11]; 100% in assay [15]. Moreover, the IC50 in assay [1] is 0.225 nM; in [19], 8 pM; in assay [3], 0.164 nM; in assay [20], 7 pM; in assay [11] it was 0.009 nM; in assay [15], 0.007 nM. Further, the 50% inhibitory concentration (IC50) in assay [22] amounted to 108 nM. In addition, the binding result in assay [18], in assay [6], in assay [10] and in assay [13] was “no binding (tested: 5e-7 M)” each time. Also, the ka2 in [4] turned out to be 0.014 s⁻¹. The kd2 in assay [4] was found to be 0.00026 s⁻¹. In assay [5], the Kd amounted to 0.14 nM. Besides, in assay [7], the koff came to 0.0091 s⁻¹. Besides, the EC50 in assay [21] came to 0.464 nM; in assay [12] it was 0.54 nM; in assay [17], 0.224 nM. For the same molecule, the “% inhibition, VEGF HUVEC Erk phosphorylation assay” value in [9] is 94%. Moreover, in assay [9], the “IC50 (nM), VEGF HUVEC Erk phosphorylation assay” value turned out to be 0.18 nM. Further, in assay [14], the on-rate constant (kon) was determined as 1.2e+06 M⁻¹ s⁻¹. Also, the “% inhibition, VEGF HUVEC proliferation assay” value in assay [16] came out at 100%. The “IC50 (nM), VEGF HUVEC proliferation assay” value in assay [16] was found to be 0.34 nM.

B3: recombinant human VEGF109 (ligand, UniProt P15692 207-315, looked up)
chain: APMAEGGGQNHHEVVKFMDVYQRSYCHPIETLVDIFQEYPDEIEYIFKPSCVPLMRCGGCCNDEGLECVPTEESNITMQIMRIKPHQGQHIGEMSFLQHNKCECRPKKD
notes: also called rhVEGF109
As for B3, the binding result in assay [23] and in [24] was “binds” throughout.
